Data reported in patent US8217140B2, “Peptides capable of binding to serum proteins and compounds, constructs and polypeptides comprising the same” (Ablynx N.V., priority 2008, dated 2012).
Positions count from the first letter of the chain named. Each block holds one molecule with its values, some of them ahead of it.

Assays:
[1] = cynomolgus monkey, in vivo; for AUCinf / C0: 2 mg/kg
Description: The pharmacokinetic profile of the constructs was analyzed in male cynomolgus monkeys of approximately 3 to 4 years old and was compared to the reference (SEQ ID NO:165). The constructs and the control were each injected in three monkeys at a dose of 2 mg/kg via an intravenous bolus injection. Blood samples were taken at predose, 5 min, 20 min, 1 h, 2 h, 4 h, 8 h (test day 1) after administration and at test days 2, 3, 5, 7, 9, 12, 15, 18, 21, 24, 27, 30, 33. In order to obtain at least 1 mL plasma per animal per sampling time, a sufficient volume of whole blood was withdrawn per sampling time. Plasma was collected after whole blood centrifugation for 30 minutes at 2200 g at room temperature (RT). The plasma samples were stored at −80° C. until analysis.
For bioanalytical determination of constructs and control article in monkey plasma, plasma samples were tested for levels of constructs and the control using ELISA based PK assays. The detection of control and constructs in the ELISA assays is based on the binding of these Nanobodies with vWF and the assay set-ups are as such that total vWF-binding Nanobody is detected.
For the reference (SEQ ID NO:165) and the construct of SEQ ID NO:167, 96-well microtiter plates (Maxisorp, Nunc, Wiesbaden, Germany) were coated overnight at 4° C. with neutravidin (Pierce) in 10:10 buffer at 3 μg/ml. Wells were aspirated and blocked for 1 hour at RT with PBS/1% casein. After this blocking step, wells were washed with PBS/0.05% Tween20. A biotinylated bivalent Nanobody against the constructs was added to the neutravidin coated plate at 2 μg/ml in PBS/0.1% casein and incubated for 1 hour at RT. After the incubation step of this capture tool, wells were washed 3 times with PBS/0.05% Tween20.
Preparations of the standards, QC samples and dilutions of the test samples were performed in a non-coated (polypropylene) plate. For the standard curve and QC-samples, solutions at the required concentrations were prepared in PBS/0.1% casein and spiked into 100% monkey plasma. To prepare standards and QC samples, a 1/100 dilution of the pure monkey plasma dilutions was made in IgM-Reducing Agent (Immunochemistry Technologies, Bloomington, USA) supplemented with 2.5% pooled human plasma (referred to as sample diluent). For the test samples, dilution factors for the test samples were estimated, and ranged between 1/100 to 1/9000 for the reference of SEQ ID NO:165 tests and between 1/100 and 12000 for the construct of SEQ ID NO: 167. Samples were diluted 1/100 in sample diluent in a first step, and if needed, further dilution was done in sample diluent supplemented with 1% cynomolgus plasma.
Standards, QC samples and diluted test samples were transferred onto the coated plate and incubated for 1 hour at RT. Afterwards the plates were washed followed by a complexation step with purified vWF (ZLB Behring). vWF diluted to 2.5 μg/ml for the assay for the reference of SEQ ID NO:165 and to 3 μg/ml for the assay for the construct of SEQ ID NO: 167 in PBS/0.1% casein was incubated on the plates for 30 minutes at RT. Plates were washed and Nanobody/vWF complexes bound to the capture tool detected with Rabbit anti-human vWF Ab (Dako, Denmark), diluted 1/2000 in PBS/0.1% casein and incubated for 30 minutes at RT. After washing, a 1/15000 dilution in PBS/0.1% casein of Horse-Radish-Peroxidase labelled goat anti-rabbit Ab (Dako, Denmark) was added to the plate and incubated for 30 minutes at RT. The enzyme coupled to the Ab catalyzes a chemical reaction with the substrate sTMB (3,3′,5,5′-tetramethylbenzidine, SDT reagents, Brussels, Belgium), resulting in a colorimetric change. After stopping this reaction after 10 minutes using HC1 (1N), the intensity of the colour was measured using a spectrophotometer at 450 nm. […]

VWF = test: Pharmacodynamic profile: ristocetin cofactor activity assay (% RICO) after i.v. administration; assay type: in vivo, Cynomolgus monkey; conditions: for Tonset values: estimated, i.v. application; for AUC below T / Time below T: threshold 20% RICO, male Cynomolgus monkey, mean n = 3; for AUC below T / Time below T / Tonset / Toffset: i.v. bolus 2 mg/kg; for Tonset: time % RICO first drops below threshold; for Toffset: time % RICO first returns above threshold
Description: For the constructs used in Example 14, pharmacodynamic characteristics upon compound administration were measured by means of a ristocetin cofactor activity assay (Biopool). The ristocetin cofactor activity is a functional assay for VWF, measuring the capacity of VWF to interact with the platelet receptor glycoprotein Ib using ristocetin as a modulator.
For pharmacodynamic data analysis, descriptive statistics (mean and SD) were calculated per dose group and per sampling time point using Microsoft Excel 2007. Response parameters and associated statistics for the overall time course were calculated by noncompartmental analysis of the response-time data using WinNonlin Pro 5.1 (Pharsight Corporation, USA; 2006). The non-compartmental analysis was based on a model for pharmacodynamic data (Model 220). The threshold value was set at 20% based on extensive historical PK/PD data on the vWF-0001 compound. Preclinical studies have shown that a complete inhibition of the pharmacodynamic marker are correlated with full antithrombotic efficacy. The following main pharmacodynamic parameters were determined: time below the threshold (Time below T), area under the threshold (AUC below T), time at which the % RICO first drops below the threshold (Tonset), and time at which the % RICO first returns back above the threshold (Toffset).

[2] = biological target: Cynomolgus monkey serum albumin (Macaca fascicularis, UniProt A2V9Z4); test: Surface plasmon resonance (BIAcore 3000) of MycHis tagged 2D3-Expedite fusions, Example 10; assay type: binding; conditions: for ka / koff (dissociation rate constant): Cynomolgus monkey serum albumin; for ka: chip ~3000 RU; for binding to CSA compared to 2D3-9GS-56E4-MycHis: FIG. 8B
Sequence of Cynomolgus monkey serum albumin (A2V9Z4 25-608): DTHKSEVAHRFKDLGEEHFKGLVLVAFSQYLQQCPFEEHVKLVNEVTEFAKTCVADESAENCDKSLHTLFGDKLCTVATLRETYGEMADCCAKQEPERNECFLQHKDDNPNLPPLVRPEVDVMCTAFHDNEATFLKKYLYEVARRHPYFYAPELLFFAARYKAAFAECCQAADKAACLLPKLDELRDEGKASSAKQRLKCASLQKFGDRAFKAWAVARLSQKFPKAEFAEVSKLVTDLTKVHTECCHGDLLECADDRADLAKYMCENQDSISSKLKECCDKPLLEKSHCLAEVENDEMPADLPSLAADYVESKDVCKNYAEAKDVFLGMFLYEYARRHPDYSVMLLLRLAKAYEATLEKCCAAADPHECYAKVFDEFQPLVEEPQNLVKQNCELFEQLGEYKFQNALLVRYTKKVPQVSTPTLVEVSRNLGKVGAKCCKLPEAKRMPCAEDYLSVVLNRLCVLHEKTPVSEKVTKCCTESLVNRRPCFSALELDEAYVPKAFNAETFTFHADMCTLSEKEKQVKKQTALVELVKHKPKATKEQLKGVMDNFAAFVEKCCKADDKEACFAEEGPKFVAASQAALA
Description: (§1) The binding of the resulting 2D3-9GS-56E4-MycHis, 2D3-9GS-59C2-MycHis, 2D3-9GS-59F2-MycHis and 2D3-9GS-59H12-MycHis fusion proteins to human and cynomolgus serum albumin (HSA and CSA respectively) was determined using surface plasmon resonance analysis. For this purpose, binding to HSA and CSA was assessed in BIAcore™ 3000, by injecting concentration series of the fusion proteins ranging from 2 μM to 200 nM on a CM5 chip coated with ˜3000 RU HSA or CSA. Coating of the chip (CM5) was performed by amine coupling using NHS/EDC for activation and ethanolamine for deactivation (Biacore amine coupling kit). HBS-EP was used as flow buffer at a rate of 45 μl min-1. 90 μl of sample was injected for 120 s.

human serum albumin = human serum albumin (Homo sapiens, UniProt P02768); test: as above; assay type: binding; conditions: for binding to HSA compared to 2D3-9GS-56E4-MycHis: FIG. 8A; for ka / dissociation rate constant (koff): Human serum albumin; for ka: chip ~3000 RU
Description: as §1

B1: 12A2_sv1-9GS-59C2-9GS-12A2_sv1 (protein)
chain: DVQLVESGGGLVQPGGSLRLSCAASGRTFSYNPMGWFRQAPGKGRELVAAISRTGGSTYYPESVEGRFTISRDNAKRTVYLQMNSLRAEDTAVYYCAAAGVRAEQGRVRTLPSEYTFWGQGTQVTVSSGGGGSGGGSRDWDFDVFGGGTPVGGGGGGSGGGSEVQLVESGGGLVQPGGSLRLSCAASGRTFSYNPMGWFRQAPGKGRELVAAISRTGGSTYYPESVEGRFTISRDNAKRTVYLQMNSLRAEDTAVYYCAAAGVRAEQGRVRTLPSEYTFWGQGTQVTVSS
Vdss lower relative to vWF0001 [1]: 12 fold
dominant half-life (t½ dominant) increase relative to vWF0001 [1]: 70 fold
mean CL decrease compared to the control [1]: 22 fold
AUCinf ([1]; iv): 1320 µg·h/mL
C0 ([1]; iv): 48900 ng/mL
Tonset values (VWF): ~5 min
mean AUC under the threshold increase relative to vWF0001 (VWF; i.v. bolus): 57 fold
time below the threshold increase relative to vWF0001 (VWF; i.v. bolus): 33 fold
AUC below T (VWF): 379 % RICO * h
Time below T (VWF): 39.9 h
Tonset (VWF): 0.079 h
Toffset (VWF): 40.0 h

B6: 12A2_sv1-AAA-12A2_sv1 (protein)
chain: DVQLVESGGGLVQPGGSLRLSCAASGRTFSYNPMGWFRQAPGKGRELVAAISRTGGSTYYPESVEGRFTISRDNAKRTVYLQMNSLRAEDTAVYYCAAAGVRAEQGRVRTLPSEYTFWGQGTQVTVSSAAAEVQLVESGGGLVQPGGSLRLSCAASGRTFSYNPMGWFRQAPGKGRELVAAISRTGGSTYYPESVEGRFTISRDNAKRTVYLQMNSLRAEDTAVYYCAAAGVRAEQGRVRTLPSEYTFWGQGTQVTVSS
plasma level after the initial drop [1]: ~2000 ng/mL
plasma level directly after i.v. injection ([1]; iv): about 45 ug/ml
AUCinf ([1]; iv): 62.6 µg·h/mL
C0 ([1]; iv): 45300 ng/mL
Tonset values (VWF): ~5 min
AUC below T (VWF): 6.60 % RICO * h
Time below T (VWF): 1.21 h
Tonset (VWF): 0.077 h
Toffset (VWF): 1.28 h

Results, then the molecule that gave them:

ka [2]: 2.75E+03 1/ms
koff (dissociation rate constant) [2]: 0.00213 s⁻¹
binding to CSA compared to 2D3-9GS-56E4-MycHis [2]: improved binding
binding to HSA compared to 2D3-9GS-56E4-MycHis (human serum albumin): improved binding
ka (human serum albumin): 3.73E+03 1/ms
dissociation rate constant (koff) (human serum albumin): 0.00179 s⁻¹
B2: 2D3-9GS-59C2-MycHis: SEQ ID NO: 160 (protein)
chain: EVQLVESGGSLVQPGGSLRLSCAASGFTFDDYAMSWVRQVPGKGLEWVSSINWSGTHTDYADSVKGRFTISRNNANNTLYLQMNSLKSEDTAVYYCAKNWRDAGTTWFEKSGSAGQGTQVTVSSGGGGSGGGSAAARDWDFDVFGGGTPVGGAAAEQKLISEEDLNGAAHHHHHH
modifications: Myc-His tag

ka [2]: 3.45E+03 1/ms
koff (dissociation rate constant) [2]: 0.00441 s⁻¹
binding to CSA compared to 2D3-9GS-56E4-MycHis [2]: improved binding
binding to HSA compared to 2D3-9GS-56E4-MycHis (human serum albumin): improved binding
ka (human serum albumin): 4.59E+03 1/ms
dissociation rate constant (koff) (human serum albumin): 0.00304 s⁻¹
B3: 2D3-9GS-59H12-MycHis: SEQ ID NO: 161 (protein)
chain: B2 chain with D138S
modifications: Myc-His tag

ka [2]: 4.01E+03 1/ms
koff (dissociation rate constant) [2]: 0.00845 s⁻¹
ka (human serum albumin): 5.02E+03 1/ms
dissociation rate constant (koff) (human serum albumin): 0.00497 s⁻¹
B4: 2D3-9GS-56E4-MycHis: SEQ ID NO: 158 (protein)
chain: B2 chain with D138Y, F141Y
modifications: Myc-His tag

ka [2]: 4.85E+03 1/ms
koff (dissociation rate constant) [2]: 0.00504 s⁻¹
binding to CSA compared to 2D3-9GS-56E4-MycHis [2]: improved binding
binding to HSA compared to 2D3-9GS-56E4-MycHis (human serum albumin): improved binding
ka (human serum albumin): 6.14E+03 1/ms
dissociation rate constant (koff) (human serum albumin): 0.00351 s⁻¹
B5: 2D3-9GS-59F2-MycHis: SEQ ID NO: 159 (protein)
chain: B2 chain with D138Y
modifications: Myc-His tag
